In patent publication US20230212549A1, “COMPOUNDS COMPRISING A […] LIGAND AND USE THEREOF” (priority 2021, published 2023):
Each block holds one binder with its values, some of them ahead of it. Numbered stars: 1 amine (or outer) side, 2 acyl side, 3 side chain; on linkers, the order of the positions; unused ones are H or OH. Bridge positions count the residues as written; N and C are the ends. Square brackets hold non-standard residues; d marks the D form. Primed or numbered codes have the meaning given here. * marks the point of attachment. Ttds″ = 1,13-diamino-4,7,10-trioxatridecan-succinamic acid spacer, O=C(CCC(=O)[*:2])NCCCOCCOCCOCCCN[*:1]; N4Ac = 6-Carboxy-1,4,8,11-tetraazaundecane, an N4-chelator, NCCNCC(CNCCN)C(=O)*; mXylylene = c1cc(C[*:1])cc(C[*:2])c1; 4Pal = N[C@@H](Cc1ccncc1)C(=O)O; Nle = CCCC[C@H](N)C(=O)O; Hexanoyl = CCCCCC(=O)*

Columns and labels:
[1] = biological target: T1, Cathepsin F (UniProt Q9UBX1); assay: cell-based or functional assay
T1 sequence (looked up): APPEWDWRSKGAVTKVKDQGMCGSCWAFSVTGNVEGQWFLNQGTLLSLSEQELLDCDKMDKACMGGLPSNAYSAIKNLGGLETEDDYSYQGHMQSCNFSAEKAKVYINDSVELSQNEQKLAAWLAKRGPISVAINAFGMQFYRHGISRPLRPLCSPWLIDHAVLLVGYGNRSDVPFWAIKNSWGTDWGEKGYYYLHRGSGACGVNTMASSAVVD

[2] = biological target: human fibroblast activation protein (FAP) on WI-38 fibroblasts (human) (UniProt Q12884); assay: competitive FACS, WI-38 cells, Cy5-labeled peptide as competitor; C = pIC50 6.1 to 7.0
[3] = biological target: fibroblast activation protein (FAP) on FAP-expressing human WI-38 fibroblasts (human), Q12884; assay: competitive FACS, WI-38 cells, vs Cy5 tracer m3; A = pIC50 >8.0; conditions: remark: other sources report otherwise

Percentage inhibition (%), reference at 1 µM [1]: 74%
B1: Cystatin C (protein, UniProt P01034 27-146, looked up)
chain: SSPGKPPRLVGGPMDASVEEEGVRRALDFAVGEYNKASNDMYHSRALQVVRARKQIVAGVNYFLDVELGRTTCTKTQPNLDNCPFHDQPHLKRKAFCSFQIYAVPWQGTMTLSKSTCQDA

pIC50 [2]: 6.1 to 7 pic50
B2: N4Ac-Ttds-Nle-[Cys-(3MeBn)-Pro-Pro-Thr-Glu-Ppa-Cys]-OH (peptide)
peptide: N4Ac-[Ttds″][Nle]CPPTE[4Pal]C-OH
modifications: linker 3-9 via mXylylene
SMILES: CCCC[C@H](NC(=O)CCC(=O)NCCCOCCOCCOCCCNC(=O)C(CNCCN)CNCCN)C(=O)N[C@H]1CSCc2cccc(c2)CSC[C@@H](C(=O)O)NC(=O)[C@H](Cc2ccncc2)NC(=O)[C@H](CCC(=O)O)NC(=O)[C@H]([C@@H](C)O)NC(=O)[C@@H]2CCCN2C(=O)[C@@H]2CCCN2C1=O

pIC50 Category (FACS) [3]: > 8 pIC50
B3: Hex-[Cys(3MeBn)-Pro-Pro-Thr-Glu-Phe-Cys]-Asp-NH2 (peptide)
peptide: Hexanoyl-CPPTEFCD-NH2
modifications: linker 1-7 via mXylylene
SMILES: CCCCCC(=O)N[C@H]1CSCc2cccc(c2)CSC[C@@H](C(=O)N[C@@H](CC(=O)O)C(N)=O)NC(=O)[C@H](Cc2ccccc2)NC(=O)[C@H](CCC(=O)O)NC(=O)[C@H]([C@@H](C)O)NC(=O)[C@@H]2CCCN2C(=O)[C@@H]2CCCN2C1=O
